This note sets out measurements from article PMC1874611 (Nucleic Acids Research, 2007).

Assay [1] addresses T1, chimeric GST-CycT1 (GST-T1; aa 1–292) (UniProt O60563 1-292). In words: pull-down.
Assay [2] has as its target T1, chimeric GST-CycT1 (GST-T1; aa 1–292). Kind of assay: stopped-flow fluorescence.

T1 sequence (O60563 1-292, change not shown): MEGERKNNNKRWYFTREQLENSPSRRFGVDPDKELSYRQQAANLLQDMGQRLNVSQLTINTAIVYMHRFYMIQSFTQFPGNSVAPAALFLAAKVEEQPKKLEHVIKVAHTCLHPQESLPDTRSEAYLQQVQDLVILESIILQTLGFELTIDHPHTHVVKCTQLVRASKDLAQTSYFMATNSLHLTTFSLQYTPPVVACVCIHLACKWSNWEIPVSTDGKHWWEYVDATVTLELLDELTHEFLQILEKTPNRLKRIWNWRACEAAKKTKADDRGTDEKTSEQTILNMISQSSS

B1: CycT1-binding domain of HEXIM1 (HEXIM1-TBD; aa 255–359) (domain or fragment)
chain: MGGDGSEFLQRDFSETYERYHTESLQNMSKQELIKEYLELEKCLSRMEDENNRLRLESKRLGGDDARVRELELELDRLRAENLQLLTENELHRQQERAPLSKFGD
With B1, the binding result in assay [1] is listed as “binds”.

B2: fluorescently labeled HEXIM1-TBD (HEXIM1-TBD*) (domain or fragment)
chain: B1 chain
modifications: dansyl-based fluorophore (position not given)
As to B2, the binding result in assay [2] is “binds”.
